Measurements: patent EP4789680A1, “NOVEL PACE4 INHIBITOR AND USE THEREOF IN ANTI-OSTEOARTHRITIS” (Inflamax Pharmaceuticals Limited, priority 2023, dated 2025)
*1 amine or outer side, *2 acyl side, *3 side chain or, on linkers, in order; H or OH if unused. Where no end group is shown, it is not given here. [ ]: non-standard residue; d: D form. Ala(piperidin-4-yl) = O=C([C@H](CC1CCN([*:3])CC1)N[*:1])[*:2]; Phe(4-CF3) = N[C@@H](Cc1ccc(C(F)(F)F)cc1)C(=O)O

Target: T1, PACE4 (UniProt P29122 150-969, limits assumed)
T1 sequence (looked up): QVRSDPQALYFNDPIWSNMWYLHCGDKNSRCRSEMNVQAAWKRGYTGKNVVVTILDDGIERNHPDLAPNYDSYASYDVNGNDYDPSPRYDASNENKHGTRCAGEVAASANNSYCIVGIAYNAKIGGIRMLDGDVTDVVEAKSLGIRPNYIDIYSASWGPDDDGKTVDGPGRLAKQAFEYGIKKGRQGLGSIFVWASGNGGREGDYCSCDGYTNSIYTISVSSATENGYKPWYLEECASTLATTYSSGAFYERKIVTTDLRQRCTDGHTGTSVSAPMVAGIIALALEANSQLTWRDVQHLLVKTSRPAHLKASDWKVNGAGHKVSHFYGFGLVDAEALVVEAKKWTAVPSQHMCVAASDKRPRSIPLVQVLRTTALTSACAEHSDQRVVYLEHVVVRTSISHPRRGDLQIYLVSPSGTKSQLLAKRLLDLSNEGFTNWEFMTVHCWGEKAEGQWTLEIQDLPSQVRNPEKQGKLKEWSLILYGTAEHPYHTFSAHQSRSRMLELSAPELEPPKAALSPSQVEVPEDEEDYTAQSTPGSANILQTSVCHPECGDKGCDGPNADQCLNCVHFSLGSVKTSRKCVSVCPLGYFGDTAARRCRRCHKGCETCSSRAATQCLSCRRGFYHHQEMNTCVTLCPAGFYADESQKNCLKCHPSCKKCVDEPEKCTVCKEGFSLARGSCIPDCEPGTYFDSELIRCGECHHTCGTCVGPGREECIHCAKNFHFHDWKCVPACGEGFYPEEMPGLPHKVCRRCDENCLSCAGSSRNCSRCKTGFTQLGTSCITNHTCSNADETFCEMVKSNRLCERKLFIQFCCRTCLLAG
Experiment: cell-based or functional assay

B1: Ac-R-R-F(4-CF3)-K-R-dT-NH2 (peptide)
peptide: Ac-RR[Phe(4-CF3)]KR[dT]-NH2
SMILES: CC(=O)N[C@@H](CCCNC(=N)N)C(=O)N[C@@H](CCCNC(=N)N)C(=O)N[C@@H](Cc1ccc(C(F)(F)F)cc1)C(=O)N[C@@H](CCCCN)C(=O)N[C@@H](CCCNC(=N)N)C(=O)N[C@@H](C(N)=O)[C@H](C)O
In the case of B1, the “IC50 (µM), PACE4 enzyme inhibition, fluorogenic substrate pyroGlu-Arg-Val-Lys-Arg-methyl-coumaryl-7-amide” value (“IC50 (µM), PACE4 enzyme inhibition” for short) is reported as 0.09 µM.

B2: P-dR-R-F(4-CF3)-K-R-dT-NH2 (peptide)
peptide: P[dR]R[Phe(4-CF3)]KR[dT]-NH2
modifications: N-terminus assumed
SMILES: C[C@H](O)[C@@H](NC(=O)[C@H](CCCNC(=N)N)NC(=O)[C@H](CCCCN)NC(=O)[C@H](Cc1ccc(C(F)(F)F)cc1)NC(=O)[C@H](CCCNC(=N)N)NC(=O)[C@@H](CCCNC(=N)N)NC(=O)[C@@H]1CCCN1)C(N)=O
B2 was tested, and the “IC50 (µM), PACE4 enzyme inhibition” value was 0.02 µM.

With Ac-RFKR-NH2 [Ac-R-F-K-R-NH2] the “IC50 (µM), PACE4 enzyme inhibition” value was 12.7 µM.

B3: Ac-R-R-A(4-Pip)-K-R-dT-NH2 (peptide)
peptide: Ac-RR[Ala(piperidin-4-yl)]KR[dT]-NH2
SMILES: CC(=O)N[C@@H](CCCNC(=N)N)C(=O)N[C@@H](CCCNC(=N)N)C(=O)N[C@@H](CC1CCNCC1)C(=O)N[C@@H](CCCCN)C(=O)N[C@@H](CCCNC(=N)N)C(=O)N[C@@H](C(N)=O)[C@H](C)O
With B3 the “IC50 (µM), PACE4 enzyme inhibition” value was 0.09 µM.

B4: Ac-R-A(4-Pip)-K-R-T-NH2 (peptide)
peptide: Ac-R[Ala(piperidin-4-yl)]KRT-NH2
SMILES: CC(=O)N[C@@H](CCCNC(=N)N)C(=O)N[C@@H](CC1CCNCC1)C(=O)N[C@@H](CCCCN)C(=O)N[C@@H](CCCNC(=N)N)C(=O)N[C@H](C(N)=O)[C@@H](C)O
For B4, the “IC50 (µM), PACE4 enzyme inhibition” value was 0.3 µM.

B5: Ac-dR-R-F(4-CF3)-K-R-dT-NH2 (peptide)
peptide: Ac-[dR]R[Phe(4-CF3)]KR[dT]-NH2
SMILES: CC(=O)N[C@H](CCCNC(=N)N)C(=O)N[C@@H](CCCNC(=N)N)C(=O)N[C@@H](Cc1ccc(C(F)(F)F)cc1)C(=O)N[C@@H](CCCCN)C(=O)N[C@@H](CCCNC(=N)N)C(=O)N[C@@H](C(N)=O)[C@H](C)O
With B5 the “IC50 (µM), PACE4 enzyme inhibition” value was 0.04 µM.

B6: Ac-R-A(4-Pip)-K-R-dT-NH2 (peptide)
peptide: Ac-R[Ala(piperidin-4-yl)]KR[dT]-NH2
SMILES: CC(=O)N[C@@H](CCCNC(=N)N)C(=O)N[C@@H](CC1CCNCC1)C(=O)N[C@@H](CCCCN)C(=O)N[C@@H](CCCNC(=N)N)C(=O)N[C@@H](C(N)=O)[C@H](C)O
With B6 the “IC50 (µM), PACE4 enzyme inhibition” value was 0.1 µM.

B7: Ac-dR-R-A(4-Pip)-K-R-dT-NH2 (peptide)
peptide: Ac-[dR]R[Ala(piperidin-4-yl)]KR[dT]-NH2
SMILES: CC(=O)N[C@H](CCCNC(=N)N)C(=O)N[C@@H](CCCNC(=N)N)C(=O)N[C@@H](CC1CCNCC1)C(=O)N[C@@H](CCCCN)C(=O)N[C@@H](CCCNC(=N)N)C(=O)N[C@@H](C(N)=O)[C@H](C)O
B7 was tested, and the “IC50 (µM), PACE4 enzyme inhibition” value was 0.12 µM.

B8: dP-dR-R-F(4-CF3)-K-R-dT-NH2 (peptide)
peptide: [dP][dR]R[Phe(4-CF3)]KR[dT]-NH2
modifications: N-terminus assumed
SMILES: C[C@H](O)[C@@H](NC(=O)[C@H](CCCNC(=N)N)NC(=O)[C@H](CCCCN)NC(=O)[C@H](Cc1ccc(C(F)(F)F)cc1)NC(=O)[C@H](CCCNC(=N)N)NC(=O)[C@@H](CCCNC(=N)N)NC(=O)[C@H]1CCCN1)C(N)=O
With B8 the “IC50 (µM), PACE4 enzyme inhibition” value was 0.02 µM.
